Test results reported in the RNAGym collection of RNA variant scans (doi:10.7554/elife.80360).

B1: Hairpin Ribozyme (parent)
chain: GUCCUCUUUCACGUGCGCGUGAAAGAGAGAAGUGAACCAGAGAAACACACGUUGUGGUAUAUUACCUGGUA

Variants of: B1
Assay: self-cleavage, relative activity (ratio to wild type); higher = more cleavage; co-transcriptional

| Variant | self-cleavage |
| --- | --- |
| GUCCUCUUUCACGUGCGCGUGAAAGAGAGAAGUGAACCAGUGAAACACACGUUGUGGAAUAUUACCUGGUA [A41U U58A] | 1.2 |
| GUCCUCUUUCACGUGCGCGUGAAAGAGAGAAGUGAACCAGUGAAACACACGUUGUGGGAUAUUACCUGGUA [A41U U58G] | 1.02 |
| GUCCUCUUUCACGUGCGCGUGAAAGAGAGAAGUGAACCAGUGAAACACACGUUGUGGUAGAUUACCUGGUA [A41U U60G] | 1.15 |
| GUCCUCUUUCACGUGCGCGUGAAAGAGAGAAGUGAACCAGUGAAACACACGUUGUGGUAUAUAACCUGGUA [A41U U63A] | 0.105 |
| GUCCUCUUUCACGUGCGCGUGAAAGAGAGAAGUGAACCAGUGAAACACACGUUGUGGUAUAUUACCAGGUA [A41U U67A] | 0.364 |
| GUCCUCUUUCACGUGCGCGUGAAAGAGAGAAGUGAACCAGUGAAACACACGUUGUGGUAUAUUACCGGGUA [A41U U67G] | 0.534 |
| GUCCUCUUUCACGUGCGCGUGAAAGAGAGAAGUGAACCAGAAUAACACACGUUGUGGUAUAUUACCUGGUA [G42A A43U] | 0.215 |
| GUCCUCUUUCACGUGCGCGUGAAAGAGAGAAGUGAACCAGAAAAGCACACGUUGUGGUAUAUUACCUGGUA [G42A A45G] | 0.138 |
| GUCCUCUUUCACGUGCGCGUGAAAGAGAGAAGUGAACCAGAAAAACCCACGUUGUGGUAUAUUACCUGGUA [G42A A47C] | 0.219 |
| GUCCUCUUUCACGUGCGCGUGAAAGAGAGAAGUGAACCAGAAAAACACACGUUGUGGUGUAUUACCUGGUA [G42A A59G] | 0.264 |
| GUCCUCUUUCACGUGCGCGUGAAAGAGAGAAGUGAACCAGAAAAACACACGUUGUGGUUUAUUACCUGGUA [G42A A59U] | 0.101 |
| GUCCUCUUUCACGUGCGCGUGAAAGAGAGAAGUGAACCAGAAAAACACACGUUGUGGUAUGUUACCUGGUA [G42A A61G] | 0.201 |
| GUCCUCUUUCACGUGCGCGUGAAAGAGAGAAGUGAACCAGAAAAACACACGUUGUGGUAUAUUCCCUGGUA [G42A A64C] | 0.129 |
| GUCCUCUUUCACGUGCGCGUGAAAGAGAGAAGUGAACCAGAAAAACACACGUUGUGGUAUAUUACCUGGUC [G42A A71C] | 0.566 |
| GUCCUCUUUCACGUGCGCGUGAAAGAGAGAAGUGAACCAGAAAAACACACGUUGUGGUAUAUUACCUGGUU [G42A A71U] | 0.159 |
| GUCCUCUUUCACGUGCGCGUGAAAGAGAGAAGUGAACCAGAAAAAAACACGUUGUGGUAUAUUACCUGGUA [G42A C46A] | 0.152 |
| GUCCUCUUUCACGUGCGCGUGAAAGAGAGAAGUGAACCAGAAAAACAUACGUUGUGGUAUAUUACCUGGUA [G42A C48U] | 0.0486 |
| GUCCUCUUUCACGUGCGCGUGAAAGAGAGAAGUGAACCAGAAAAACACAGGUUGUGGUAUAUUACCUGGUA [G42A C50G] | 0.128 |
| GUCCUCUUUCACGUGCGCGUGAAAGAGAGAAGUGAACCAGAAAAACACAUGUUGUGGUAUAUUACCUGGUA [G42A C50U] | 0.106 |

| Variant | self-cleavage |
| --- | --- |
| GUCCUCUUUCACGUGCGCGUGAAAGAGAGAAGUGAACCAGAAAAACACACGUUGUGGUAUAUUACAUGGUA [G42A C66A] | 0.0634 |
| GUCCUCUUUCACGUGCGCGUGAAAGAGAGAAGUGAACCAGAAAAACACACGUUGUGGUAUAUUACGUGGUA [G42A C66G] | 0.113 |
| GUCCUCUUUCACGUGCGCGUGAAAGAGAGAAGUGAACCAGAAAAACACACGUUGUGAUAUAUUACCUGGUA [G42A G57A] | 0.14 |
| GUCCUCUUUCACGUGCGCGUGAAAGAGAGAAGUGAACCAGAAAAACACACGUUGUGCUAUAUUACCUGGUA [G42A G57C] | 0.0908 |
| GUCCUCUUUCACGUGCGCGUGAAAGAGAGAAGUGAACCAGAAAAACACACGUUGUGGUAUAUUACCUGCUA [G42A G69C] | 0.118 |
| GUCCUCUUUCACGUGCGCGUGAAAGAGAGAAGUGAACCAGAAAAACACACGCUGUGGUAUAUUACCUGGUA [G42A U52C] | 0.208 |
| GUCCUCUUUCACGUGCGCGUGAAAGAGAGAAGUGAACCAGAAAAACACACGGUGUGGUAUAUUACCUGGUA [G42A U52G] | 0.0884 |
| GUCCUCUUUCACGUGCGCGUGAAAGAGAGAAGUGAACCAGAAAAACACACGUUGAGGUAUAUUACCUGGUA [G42A U55A] | 0.104 |
| GUCCUCUUUCACGUGCGCGUGAAAGAGAGAAGUGAACCAGAAAAACACACGUUGCGGUAUAUUACCUGGUA [G42A U55C] | 0.103 |
| GUCCUCUUUCACGUGCGCGUGAAAGAGAGAAGUGAACCAGAAAAACACACGUUGGGGUAUAUUACCUGGUA [G42A U55G] | 0.249 |
| GUCCUCUUUCACGUGCGCGUGAAAGAGAGAAGUGAACCAGAAAAACACACGUUGUGGUACAUUACCUGGUA [G42A U60C] | 0.371 |
| GUCCUCUUUCACGUGCGCGUGAAAGAGAGAAGUGAACCAGAAAAACACACGUUGUGGUAGAUUACCUGGUA [G42A U60G] | 0.157 |
| GUCCUCUUUCACGUGCGCGUGAAAGAGAGAAGUGAACCAGAAAAACACACGUUGUGGUAUAUCACCUGGUA [G42A U63C] | 0.113 |
| GUCCUCUUUCACGUGCGCGUGAAAGAGAGAAGUGAACCAGAAAAACACACGUUGUGGUAUAUUACCCGGUA [G42A U67C] | 0.105 |
| GUCCUCUUUCACGUGCGCGUGAAAGAGAGAAGUGAACCAGAAAAACACACGUUGUGGUAUAUUACCUGGGA [G42A U70G] | 0.161 |
| GUCCUCUUUCACGUGCGCGUGAAAGAGAGAAGUGAACCAGACUAACACACGUUGUGGUAUAUUACCUGGUA [G42C A43U] | 0.106 |
| GUCCUCUUUCACGUGCGCGUGAAAGAGAGAAGUGAACCAGACAACCACACGUUGUGGUAUAUUACCUGGUA [G42C A45C] | 0.0604 |
| GUCCUCUUUCACGUGCGCGUGAAAGAGAGAAGUGAACCAGACAAACGCACGUUGUGGUAUAUUACCUGGUA [G42C A47G] | 0.116 |
| GUCCUCUUUCACGUGCGCGUGAAAGAGAGAAGUGAACCAGACAAACACCCGUUGUGGUAUAUUACCUGGUA [G42C A49C] | 0.215 |
